PMC9313494 (2022)

Molecular target: Lys-Nle peptide (norleucine (Nle) residues (Nle12 named); D-residues (D-Lys1, D-Lys8 named); terminal thiol group)
Assay: SPR

- koff: 0.00973 s⁻¹
B1: bone morphogenetic protein-2 (BMP-2) (ligand)
chain: QAKHKQRKRLKSSCKRHPLYVDFSDVGWNDWIVAPPGYHAFYCHGECPFPLADHLNSTNHAIVQTLVNSVNSKIPKACCVPTELSAISMLYLDENEKVVLKNYQDMVVEGCGCR
